Results on one molecule are retold here after paper PMC5286830, “Prokaryotic ubiquitin-like protein remains intrinsically disordered when covalently attached to proteasomal target proteins” (BMC Structural Biology, 2017).

The assay deals with T1, Pup ligase CgluPafA-His6 (proteasome accessory factor A from Corynebacterium glutamicum) (Corynebacterium glutamicum, UniProt Q8NQE1 1-482).
T1 construct: Pup ligase PafA, Corynebacterium glutamicum; The anisotropy methods call the titrated protein only 'CgluPafA'
T1 sequence (looked up): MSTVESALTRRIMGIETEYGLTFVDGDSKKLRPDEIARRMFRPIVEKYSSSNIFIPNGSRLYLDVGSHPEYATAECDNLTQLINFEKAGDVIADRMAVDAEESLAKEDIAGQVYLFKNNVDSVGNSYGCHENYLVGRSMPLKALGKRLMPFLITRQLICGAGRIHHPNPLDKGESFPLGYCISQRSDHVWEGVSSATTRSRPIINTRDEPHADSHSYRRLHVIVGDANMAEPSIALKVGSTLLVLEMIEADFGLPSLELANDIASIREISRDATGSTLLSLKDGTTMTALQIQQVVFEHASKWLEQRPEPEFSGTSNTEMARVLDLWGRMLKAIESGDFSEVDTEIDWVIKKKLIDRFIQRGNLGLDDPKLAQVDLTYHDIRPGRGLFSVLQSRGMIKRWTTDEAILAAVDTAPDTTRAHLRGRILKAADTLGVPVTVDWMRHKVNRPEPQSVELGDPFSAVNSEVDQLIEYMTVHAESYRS
The assay is described as follows: fluorescence polarisation; fluorescence anisotropy on a Synergy BioTek plate reader; 12.5 nM CgluPup-Q30C-Fluorescein labeled substrate or free CgluPup with 0 to 30 uM CgluPafA; 50 mM Tris pH 8.04 (RT), 150 mM NaCl, 0.5 mM EDTA, 0.001% Tween-20. The following applies: both partners purified. (Fluorescence polarisation rises when a labelled molecule tumbles more slowly, as on binding a larger partner.)

B1: fluorescein-labeled CgluPup-Q30C variant (free) (natural protein, Corynebacterium glutamicum, UniProt Q8NQE0 1-64, looked up)
chain: MNAKQTQIMGGGGRDEDNAEDSAQASGQVC(fluorescein‑5‑maleimide)INTEGVDSLLDEIDGLLENNAEEFVRSYVQKGGE
notes: prokaryotic ubiquitin-like protein Pup, Corynebacterium glutamicum; also called CgluPup-Q30C-Fluorescein; free CgluPup-Q30C
Usually Kd stands for the constant that tells how readily two partners part at equilibrium. In the case of B1, the Kd is 1820 ± 180 nM.
